Measured values published in paper PMC12598741 (2025).

Assays:
Experiment in all cases: BLI
h11A4 x L15-1 hIgG4 = molecular target: h11A4 x L15-1 hIgG4
h11A4 x L15-4 hIgG4 = molecular target: h11A4 x L15-4 hIgG4
h11A4 x L15-5 hIgG4 = molecular target: h11A4 x L15-5 hIgG4
h11A4 x L15-3 hIgG4 = molecular target: h11A4 x L15-3 hIgG4
h11A4 x L15-2 hIgG4 = molecular target: h11A4 x L15-2 hIgG4
L15 = molecular target: L15
17C7 x L15 hIgG4 = molecular target: 17C7 x L15 hIgG4

B1: mouse CD16 (mCD16), his-tagged (receptor)
chain: ALPKAVVKLDPPWIQVLKEDMVTLMCEGTHNPGNSSTQWFHNGRSIRSQVQASYTFKATVNDSGEYRCQMEQTRLSDPVDLGVISDWLLLQTPQRVFLEGETITLRCHSWRNKLLNRISFFHNEKSVRYHHYKSNFSIPKANHSHSGDYYCKGSLGSTQHQSKPVTITVQDPATTSSISLVWYHT
Question: With B1 as the binder, how does the Kd (h11A4 x L15-1 hIgG4) read?
Answer: 163 nM

Question: What about the Kd (h11A4 x L15-4 hIgG4) of the same binder?
Answer: 211 nM

Question: And the Kd (h11A4 x L15-5 hIgG4)?
Answer: 197 nM

Question: And the Kd (h11A4 x L15-3 hIgG4)?
Answer: 218 nM

Question: And the Kd (h11A4 x L15-2 hIgG4)?
Answer: 119 nM

Question: What about the Kd (L15) of the same binder?
Answer: 126 nM

Question: And the Kd (17C7 x L15 hIgG4)?
Answer: 16.3 nM
